This is an account of results in the RNAGym collection of RNA variant scans (doi:10.7554/elife.80360).

B1: Hammerhead Ribozyme (parent)
chain: ACCGGAUGUGCUUUCCGGUCUGAUGAGUCCGUGAGGACGAAACAG

This data set covers variants of B1. The experiment in a line: self-cleavage, relative activity (ratio to wild type); higher = more cleavage; co-transcriptional.
As for ACCGGAUGUGCUUUCCGGUCUGAUGAGUCCGUGACGACGAACCAG, the self-cleavage was determined as 0.283.

Take ACCUGAUGUGGUUUCCGGUCUGAUGAGUCCGUGAGGACGAAACAG: the self-cleavage was found to be 0.52.

Consider ACCGGAUGUGCUUUCCGGUCUGAUUAGUCUGUGAGGACGAAACAG, for which the self-cleavage was determined as 0.259.

Turning to ACCGGAUGUGCUUUCCGGUCUGAUGAGUCCGAGAGGACCAAACAG, the self-cleavage came to 0.485.

Turning to ACCGGAUGUGCUUUCCGGUCUGAUGAGUCCGUUAGGACGAAACAC, the self-cleavage worked out at 0.752.

With ACCGGAUGUGUUUUCCGGUCUGAUGAGUCCGUGAGGACGGAACAG, the self-cleavage came to 0.342.

For the variant ACCGGAUGUGCUCUCCGGUUUGAUGAGUCCGUGAGGACGAAACAG, the self-cleavage worked out at 0.405.

Consider ACCGUAUGUGCUUUCCGGUCUGAUGAGUCCGAGAGGACGAAACAG, for which the self-cleavage was found to be 0.795.

For ACCGGAUGUGCUUUCCGGUCUGAUGAGUCCGUGAAGACGAAUCAG, the self-cleavage came out at 0.29.

Consider ACCGGAUGUGCUUUCCGGUCUAAUGUGUCCGUGAGGACGAAACAG, for which the self-cleavage was found to be 0.338.

As for AACGGAUGUGAUUUCCGGUCUGAUGAGUCCGUGAGGACGAAACAG, the self-cleavage was determined as 0.958.

Turning to AACGGAUGUGCUUUCCGGUCUGAUGAGACCGUGAGGACGAAACAG, the self-cleavage was 0.394.

Regarding ACCGGAUUUGCGUUCCGGUCUGAUGAGUCCGUGAGGACGAAACAG, the self-cleavage came to 0.993.

For ACCGGAUGUGCUUUCAGGUCUGAUGUGUCCGUGAGGACGAAACAG, the self-cleavage is 0.59.

In the case of ACCGGAUGUGCUUUCCGGUCUAAUGAGCCCGUGAGGACGAAACAG, the self-cleavage was 0.294.

As for ACCGGAUGUGCUUUCCGGUCUGAUUAGUCCCUGAGGACGAAACAG, the self-cleavage turned out to be 0.298.

As to ACCGGAUGUGCUUUCCGGUCUGAUGAGUCCGUGAGGACGUAACGG, the self-cleavage was 0.649.

Turning to ACCGGAUGUGCUUUCCGGUCGGAUGAGUCCGCGAGGACGAAACAG, the self-cleavage came to 0.523.

Consider ACCGGAUGUGCUUACCGGUCUGAUGAGUCCUUGAGGACGAAACAG, for which the self-cleavage amounted to 1.31.

Regarding ACCGGAUGUGCUUUCCGGUCUGAUGAGUCAGUGAGGACGAAUCAG, the self-cleavage stood at 0.312.

Turning to ACCGGAUGUGCUAUCCGGUCUGAUGAGUCCGUGAGGACGGAACAG, the self-cleavage was 0.287.

On to ACCGGAUGUGCUAUCCGGUCUGAUGAGUCCGUGAGGACGCAACAG, for which the self-cleavage was determined as 0.711.

For ACCGGAUGUGCUUUCCGGUCUGAUGAGUCCGUGACGACGAAACUG, the self-cleavage came to 0.465.

For ACCGGAUGUGCUUUCCGGUCUGAUUAGGCCGUGAGGACGAAACAG, the self-cleavage is 0.314.

ACCGGAUGUGCUUUCCGGUCUGAUGAGUCCGUGAGGAUGAAACUG: the self-cleavage was 0.648.

Turning to ACCGGAUGGGCCUUCCGGUCUGAUGAGUCCGUGAGGACGAAACAG, the self-cleavage turned out to be 1.57.

As to ACCGGAUGUGCUUUCCGGUCUGAGGAGUCCGUGAGUACGAAACAG, the self-cleavage turned out to be 0.803.

As for ACCGGAGGUGCUUUCCGGUCUGAUGAGUCCGUGAAGACGAAACAG, the self-cleavage came to 0.654.

For the variant ACCGGAUGUGCUUUCCGGUCGGAUGAGUCCGUGAGGACGAAACAC, the self-cleavage worked out at 0.278.

Turning to ACCGGAUGUGCUUUCCGGUCUGCUGGGUCCGUGAGGACGAAACAG, the self-cleavage amounted to 0.212.

Regarding ACCGGAUGUGCCUUCCGGUCUGACGAGUCCGUGAGGACGAAACAG, the self-cleavage stood at 1.01.

On to ACCGGAUGUGCUUUCCGGUCUGAUUAGUCCGUGAGAACGAAACAG, for which the self-cleavage was 0.365.

In the case of ACCGGAUGUGCUUUCGGGUCUGAUGAGUCCGUGAGGACGGAACAG, the self-cleavage turned out to be 0.431.

In the case of ACCGGAUGUGCUUUGCGGUCUGAUGAGUCCGUGAGGACGAAACAG, the self-cleavage stood at 0.877.

Turning to ACCGGUUGUGCUUUCGGGUCUGAUGAGUCCGUGAGGACGAAACAG, the self-cleavage was found to be 0.459.

With ACCGGAUGUGCUUUCCGGUCUGAUGAGUCCUUGAGGUCGAAACAG, the self-cleavage was determined as 0.847.

Consider ACCGGAUGUGCUUUCCGGCGUGAUGAGUCCGUGAGGACGAAACAG, for which the self-cleavage came out at 0.289.

As for ACCCGAUGUGCUUUCCGGACUGAUGAGUCCGUGAGGACGAAACAG, the self-cleavage turned out to be 0.283.

AGCGGAUGUGCUUUCCGGUCUGAUGAGUCCGUGAGGACGAUACAG: the self-cleavage was determined as 0.293.

ACCGGAUGUGCUUUCCAAUCUGAUGAGUCCGUGAGGACGAAACAG: the self-cleavage was 0.294.

Take ACCGGAUGUGCUUUCCGGUCUUAUGAGUCCGUAAGGACGAAACAG: the self-cleavage is 0.307.

As for ACAGGAUGUGCUUUCCGGUCUGAUGAGUCCGUGAGGACCAAACAG, the self-cleavage is 0.282.

Regarding GCCGGAUGUGCUUUCCGGCCUGAUGAGUCCGUGAGGACGAAACAG, the self-cleavage amounted to 2.02.

On to ACCGGAUCUGCUUUCCUGUCUGAUGAGUCCGUGAGGACGAAACAG, for which the self-cleavage stood at 0.752.

As for ACGGGAUGUGCUUUCCGGUCUGAUGAGUCCGUGAAGACGAAACAG, the self-cleavage is 0.292.

For the variant ACCGGAUGUGCAUUCCGGUCUGAUGAGACCGUGAGGACGAAACAG, the self-cleavage was found to be 0.873.

For ACCGGAUGUGCUUUGCGGUCUGAUGAGUCCGUGAGCACGAAACAG, the self-cleavage is 0.284.

As to ACCGGAUCUGCUUUCCGGUCUGAUGAGUCCGUGAGGACAAAACAG, the self-cleavage stood at 0.347.

ACCGAACGUGCUUUCCGGUCUGAUGAGUCCGUGAGGACGAAACAG: the self-cleavage came to 1.06.

In the case of ACCGGAUGUGCCUUCCGGUGUGAUGAGUCCGUGAGGACGAAACAG, the self-cleavage came to 0.324.

For ACCGGAUGUGCUUUCCGGUCUGUUGAGUCCGUGAGGACGAUACAG, the self-cleavage was determined as 0.307.

As for ACCGGCUGUGCUUUACGGUCUGAUGAGUCCGUGAGGACGAAACAG, the self-cleavage was determined as 0.761.

Take ACCGGAUGUGCUGUCCGGUCUGAUGAAUCCGUGAGGACGAAACAG: the self-cleavage turned out to be 0.66.

With ACCGGAUGUGCUUUCCGGCCUGAUGAGUCCUUGAGGACGAAACAG, the self-cleavage is 0.789.

As for ACCGGAUGUGCUUUCCGGUCUGAUGAGUCCGAGAGGACGAAAGAG, the self-cleavage worked out at 0.484.

As to ACCGUAUGUGCUUUCUGGUCUGAUGAGUCCGUGAGGACGAAACAG, the self-cleavage was determined as 0.894.

For ACCGGAUGUGCUUUCCGGUCUGAUGAGUCCGUGAGGACGCAACCG, the self-cleavage came to 0.396.
